Test results from paper PMC8836279, “The T850D Phosphomimetic Mutation in the Androgen Receptor Ligand Binding Domain Enhances Recruitment at Activation Function 2” (International Journal of Molecular Sciences, 2022).
Numbering of substitutions follows the chain as printed. Square brackets hold non-standard residues; d marks the D form. pT = C[C@@H](OP(=O)(O)O)[C@H](N)C(=O)O

How the values were obtained:
LBD WT = conditions: split TEV assay, Hep3B
AR WT = biological target: T1, AR WT (Homo sapiens, UniProt P10275); experiment: Whole-cell competition ligand binding assay in COS-7 cells; conditions: mean ± SE
T1 construct: Cells expressing a flag-tagged AR full-length were used as control; expressed in transfected cells
T1 sequence (P10275 1-920): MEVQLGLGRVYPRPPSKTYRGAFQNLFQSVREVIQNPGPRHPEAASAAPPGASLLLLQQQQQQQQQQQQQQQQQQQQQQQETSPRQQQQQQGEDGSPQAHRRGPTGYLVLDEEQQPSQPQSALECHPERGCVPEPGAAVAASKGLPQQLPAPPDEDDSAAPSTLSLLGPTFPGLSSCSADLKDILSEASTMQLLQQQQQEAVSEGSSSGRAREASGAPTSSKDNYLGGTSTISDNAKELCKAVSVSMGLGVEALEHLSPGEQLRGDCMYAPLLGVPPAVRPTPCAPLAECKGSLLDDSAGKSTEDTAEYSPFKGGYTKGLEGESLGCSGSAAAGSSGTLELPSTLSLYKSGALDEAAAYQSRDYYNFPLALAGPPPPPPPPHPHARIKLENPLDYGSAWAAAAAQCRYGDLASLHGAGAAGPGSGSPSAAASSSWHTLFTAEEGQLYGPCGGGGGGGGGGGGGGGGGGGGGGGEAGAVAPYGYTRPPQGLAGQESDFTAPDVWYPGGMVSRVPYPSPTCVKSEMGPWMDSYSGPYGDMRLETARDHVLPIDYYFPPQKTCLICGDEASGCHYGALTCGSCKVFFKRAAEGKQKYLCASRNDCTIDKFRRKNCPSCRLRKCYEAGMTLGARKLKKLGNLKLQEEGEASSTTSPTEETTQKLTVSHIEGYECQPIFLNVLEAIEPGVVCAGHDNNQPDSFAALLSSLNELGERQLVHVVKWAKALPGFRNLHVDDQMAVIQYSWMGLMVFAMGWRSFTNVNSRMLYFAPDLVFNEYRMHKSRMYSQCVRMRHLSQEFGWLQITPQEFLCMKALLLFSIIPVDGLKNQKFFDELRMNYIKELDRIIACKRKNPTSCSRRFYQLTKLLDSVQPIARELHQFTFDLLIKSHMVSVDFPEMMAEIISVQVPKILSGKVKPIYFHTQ
Procedure: (§1) After addition of Ultima Gold XR (Perkin Elmer, Waltham, MA, USA), cell lysates were counted for ^3H-signal. Data were normalized for the average cpm of all data points per independent experiment. Mean and SEM of the specific binding (total binding—non-specific binding) is given (n ≥ 3). Via non-linear regression analysis using the One-site binding-equation of GraphPad Prism 9 (version 9.3.1), the KD and Bmax were calculated. Ratio-paired T-test with * = p ≤ 0.05, ** = p < 0.01.

AR T850A = biological target: T2, AR T850A (Homo sapiens, UniProt P10275, T851A); experiment: as above; conditions: mean ± SE
T2 construct: Cells expressing a flag-tagged AR full-length were used as control; expressed in transfected cells
T2 sequence (P10275 1-920 T851A): T1 sequence (P10275 1-920) with T851A
Procedure: as §1

AR T850D = biological target: T3, AR T850D (Homo sapiens, UniProt P10275, T851D); experiment: as above
T3 construct: Cells expressing a flag-tagged AR full-length were used as control; expressed in transfected cells
T3 sequence (P10275 1-920 T851D): T1 sequence (P10275 1-920) with T851D
Procedure: as §1

[1] = Circular dichroism spectroscopy and thermal denaturation of H10 peptides; format: physicochemical; conditions: for melting temperature higher than the WT peptide: 25 µM peptide in 20% TFE-TRIS buffer pH 7.5, at all wave lengths (208, 211, 215, 222 nm); for reduction (vs. WT peptide) of the CD minimum at 208 nm / reduction (vs. WT peptide) of the CD minimum at 222 nm: 50 µM peptide in 20% TFE-TRIS buffer pH 7.5, 4 °C
Procedure: Peptides (AR WT 845–868: Acetyl-[…]-amide) with T850D or with phosphorylated T850 (Genscript, Piscataway, NJ, USA) were compared to WT peptide through their CD spectra. […] The Mean Residue-Molar Ellipticity (MR-ME) was calculated as MR-ME = MRW × θ/(10 × d × c) with MRW (Mean Residue Weight) = peptide weight/(n − 1) and n = […]; with θ as the observed ellipticity in millidegrees; […]. The unfolded fraction (Funfolded) of the peptide was calculated from the Ellipticity data using equation: Funfolded = (θt − θfolded)/(θunfolded − θfolded) with θt as the Ellipticity at each temperature, θfolded as the Elllipticity of the peptide in folded state and θunfolded as the Ellipticity of the peptide in unfolded state. Melting temperature (Tm) of AR 845–868 peptides were calculated through nonlinear regression analysis of the Sigmoidal dose response curves (variable slope) using GraphPad Prism 9, version 9.3.1. The temperature corresponding to an unfolded fraction of 0.5 is the Tm. Mean melting temperatures with 95% CI of 2 independent experiments are given. Helix content was calculated from the molar ellipticity [θ] at 222 nm using the following equation, % helix = 100 ([θ]222/(−39,500(1 − 2.57/n))), where n is the number of total peptide bonds and [θ]222 has been corrected for background.

| Compound | melting temperature higher than the WT peptide [1] | reduction (vs. WT peptide) of the CD minimum at 208 nm [1] [%] | reduction (vs. WT peptide) of the CD minimum at 222 nm [1] [%] | also measured |
| --- | --- | --- | --- | --- |
| C[C@]12CCC(=O)C[C@@H]1CC[C@@H]1[C@@H]2CC[C@]2(C)[C@@H](O)CC[C@@H]12 [DHT, dihydrotestosterone] |  |  |  | EC50 of WT LBD compared to EC50 of T850D LBD (LBD WT): 10 fold |
| C[C@@H]1CC2=CC(=O)CC[C@@H]2[C@H]2CC[C@@]3(C)[C@@H](CC[C@]3(C)O)[C@@H]21 [^3H-Mib] |  |  |  | Bmax (AR WT): 5182 (±602) cpm; Bmax (AR T850A): 5514 (±561) cpm; increase of maximal binding, AR T850D vs. AR WT (AR T850D): approximately 50%; Bmax (AR T850D; mean ± SE): 7902 (±773) ** cpm |
| T850D peptide: H10 peptide AR 845–868 (WT: Acetyl-KRKNPTSCSRRFYQLTKLLDSVQP-amide) with T850D (Ac-KRKNPDSCSRRFYQLTKLLDSVQP-NH2) | approximately 13 °C | 30 | 43 |  |
| T850Ph peptide: H10 peptide AR 845–868 (WT: Acetyl-KRKNPTSCSRRFYQLTKLLDSVQP-amide) with phosphorylated T850 (Ac-KRKNP[pT]SCSRRFYQLTKLLDSVQP-NH2; SMILES CC(=O)N[C@@H](CCCCN)C(=O)N[C@@H](CCCNC(=N)N)C(=O)N[C@@H](CCCCN)C(=O)N[C@@H](CC(N)=O)C(=O)N1CCC[C@H]1C(=O)N[C@H](C(=O)N[C@@H](CO)C(=O)N[C@@H](CS)C(=O)N[C@@H](CO)C(=O)N[C@@H](CCCNC(=N)N)C(=O)N[C@@H](CCCNC(=N)N)C(=O)N[C@@H](Cc1ccccc1)C(=O)N[C@@H](Cc1ccc(O)cc1)C(=O)N[C@@H](CCC(N)=O)C(=O)N[C@@H](CC(C)C)C(=O)N[C@H](C(=O)N[C@@H](CCCCN)C(=O)N[C@@H](CC(C)C)C(=O)N[C@@H](CC(C)C)C(=O)N[C@@H](CC(=O)O)C(=O)N[C@@H](CO)C(=O)N[C@H](C(=O)N[C@@H](CCC(N)=O)C(=O)N1CCC[C@H]1C(N)=O)C(C)C)[C@@H](C)O)[C@@H](C)OP(=O)(O)O) | ~27 °C | 38 | 51 |  |
